Legend:
Experiment in all cases: ELISA
[1] = molecular target: peptide aptamer NNS8/N5 (MBP with C-terminal peptide […]) (Escherichia coli (strain K12), UniProt P0AEX9 29-392 = MBP)
[2] = molecular target: peptide aptamer NNS8/N7 (MBP with C-terminal peptide […]) (Escherichia coli (strain K12), UniProt P0AEX9 29-392 = MBP)
[3] = molecular target: peptide aptamer NNS8/N8 (MBP with C-terminal peptide […]) (Escherichia coli (strain K12), UniProt P0AEX9 29-392 = MBP)
[4] = molecular target: peptide aptamer NNS8/N10 (MBP with C-terminal peptide […]) (Escherichia coli (strain K12), UniProt P0AEX9 29-392 = MBP)
[5] = molecular target: peptide aptamer NNS8/N21 (MBP with C-terminal peptide […]) (Escherichia coli (strain K12), UniProt P0AEX9 29-392 = MBP)
[6] = molecular target: peptide aptamer NNS8/N22 (MBP with C-terminal peptide […]) (Escherichia coli (strain K12), UniProt P0AEX9 29-392 = MBP)
[7] = molecular target: peptide aptamer NNS8/N23 (MBP with C-terminal peptide […]) (Escherichia coli (strain K12), UniProt P0AEX9 29-392 = MBP)
[8] = molecular target: peptide aptamer RB13 (MBP with C-terminal peptide […]) (Escherichia coli (strain K12), UniProt P0AEX9 29-392 = MBP)
[9] = molecular target: peptide aptamer RB15 (MBP with C-terminal peptide […]) (Escherichia coli (strain K12), UniProt P0AEX9 29-392 = MBP)
[10] = molecular target: peptide aptamer RB16 (MBP with C-terminal peptide […]) (Escherichia coli (strain K12), UniProt P0AEX9 29-392 = MBP)
[11] = molecular target: peptide aptamer RB17 (MBP with C-terminal peptide […]) (Escherichia coli (strain K12), UniProt P0AEX9 29-392 = MBP)
[12] = molecular target: peptide aptamer RB18 (MBP with C-terminal peptide […]) (Escherichia coli (strain K12), UniProt P0AEX9 29-392 = MBP)

Measured: binding result

B1: single-chain NS3 protease (scNS3) (enzyme)
chain: GSVVIVGRIILSGRAPITAYSQQTRGLLGCIITSLTGRDKNQVEGEVQVVSTATQSFLATCVNGVCWTVYHGAGSKTLAAPKGPITQMYTNVDQDLVGWPKPPGARSLTPCTCGSSDLYLVTRHADVIPVRRRGDSRGSLLSPRPVSYLKGSSGGPLLCPFGHAVGIFRAAVCTRGVAKAVDFVPVESMETTMRS
notes: domain: NS4A cofactor peptide;domain: NS3 protease domain
no binding: all assays above
